Positions count from the first letter of the chain named.

Results on five molecules are retold here after patent publication US20200087400A1 (EUREKA THERAPEUTICS, published 2020).

To fix the notation:
B1: PSA146/HLA-A*02:01-specific scFv phage clone #24 (scFv, V domains shown)
VH: QVQLVQSGAEVKKPGASVKVSCKASGYTFTSYYMHWVRQAPGKGLEWMGGFDPEDGETIYAQKFQGRVTMTEDTSTDTAYMELSSLRSEDTAVYYCARYPWDHWGQGTLVTVSS
VL: QAVVTQEPSLTVSPGGTVTLTCASSTGAVTSGYYPNWFQQKPGQAPRPLIYSTNNKHSWTPARFSGSLLGGKAALTLSGVQPEDEAEYYCLLYYGGQGVFGGGTKLTVLG
B2: PSA146/HLA-A*02:01-specific scFv phage clone #21 (scFv, V domains shown)
VH: B1 VH with P100N, W101Y, H103T
VL: QAVVTQEPSLTVSPGGTVTLTCASSTGTVTSTYYPNWFQQKPGQAPRALIYSTSNRHSWTPARFSGSLLGGKAALTVSGVQPDDEAEYYCLVFYGGVWVFGGGTKLTVLG
B3: PSA146/HLA-A*02:01-specific scFv phage clone #20 (scFv, V domains shown)
VH: EVQLVQSGAEVKKPGESLKISCKGSGYSFTSYRIGWVRQMPGKGLEWMGIIYPGDSDTRYSPSFQGQVTISADKSISTAYLQWSSLKASDTAMYYCARWGLSWDGWGVTDYWGQGTLVTVSS
VL: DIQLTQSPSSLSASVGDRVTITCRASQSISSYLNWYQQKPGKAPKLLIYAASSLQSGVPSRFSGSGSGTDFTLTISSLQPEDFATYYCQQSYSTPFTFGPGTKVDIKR
B4: PSA146/HLA-A*02:01-specific scFv phage clone #26 (scFv, V domains shown)
VH: QVQLVQSGAEVKKPGASVKVSCKTSGYTFTNYGISWVRQAPGQGLEWMGWISAYNGNTNYAQNLQGRVTMTTDTSTSTAYMELRSLRSDDTAVYYCARSSYYGYLSDGWGQGTLVTVSS
VL: LPVLTQPPSASGTPGQRVTISCSGSSSNIGTNYVYWYQQLPGTAPKLLIYSNNQRPSGVPDRFSGSKSGTSASLAISGLRSEDEADYYCAAWDDSLSGLYVFGTGTKVTVLG
B5: PSA146/HLA-A*02:01-specific scFv phage clone #22 (scFv, V domains shown)
VH: EVQLVQSGAEVKKPGESLKISCKGSGYSFTSYWIGWVRQMPGKGLEWMGRIDPSDSYTNYSPSFQGHVTISADKSISTAYLQWSSLKASDTAMYYCARSFGAGYDSWGQGTLVTVSS
VL: QSALTQPASVSGSPGQSITISCTGTSSDVGGYNYVSWYQQHPGKAPKLMIYDVSKRPSGVSNRFSGSKSGNTASLTISGLQAEDEADYYCSSYTSSSRYVFGTGTKVTVLG

The first test addresses T1, control peptide A2E-5/HLA-A*02:01 complex on T2 cells (member of the P19 mixture) (human).
T1 construct: Loaded on T2 cells as part of the mixture of 19 control peptides
Put plainly: flow cytometry, phage on T2 cells. From the text: (§1) Binding of the phage clones was detected by HRP-conjugated anti-M13 antibodies and developed using HRP substrate. The absorbance was read at 450 nm. […] Then, unique antibody clones were identified through DNA sequencing of ELISA-positive clones. […] T2 cells loaded with different peptides and β2M were first stained with purified scFv phage clones, followed by staining with a mouse anti-M13 mAb, and finally R-PE conjugated horse anti-mouse IgG from Vector Labs. Each step of the staining was performed for between 30-60 minutes on ice and the cells were washed twice between stainings. All 16 clones recognized PSA146-loaded T2 cells specifically. FIG. 3 provides examples of PSA146/HLA-A*02:01 specific phage clone binding to peptide-loaded T2 cells through FACS. […] The negative control scFv phage clone presents a human antibody previously found not to bind any cell-surface human antigens.
(§2) To identify additional PSA146/HLA-A*02:01 specific phage clones.
For orientation: In flow cytometry, cells or beads pass a laser one at a time.
Take B1: the binding result was “no binding”.

With B2, the binding result was “no binding”.

B3: the binding result is “no binding”.

As to B4, the binding result is recorded as “no binding”.

For a further test, the target named is T2, control peptide A2E-1/HLA-A*02:01 complex on T2 cells (member of the P19 mixture) (human).
T2 construct: Loaded on T2 cells as part of the mixture of 19 control peptides
The test is described as follows: flow cytometry, phage on T2 cells.
Text: as §1, §2
Consider B1, for which the binding result was “no binding”.

For B2, the binding result was “no binding”.

Take B5: the binding result is “no binding”.

On to B3, for which the binding result is “no binding”.

Regarding B4, the binding result is listed as “no binding”.

In a further test the target is T3, control peptide A2E-4/HLA-A*02:01 complex on T2 cells (member of the P19 mixture) (human).
T3 construct: Loaded on T2 cells as part of the mixture of 19 control peptides
Put plainly: flow cytometry, phage on T2 cells.
Text: as §1, §2
As to B1, the binding result is on record as “no binding”.

On to B2, for which the binding result is “no binding”.

Turning to B3, the binding result is listed as “no binding”.

As to B4, the binding result is given as “no binding”.

In a further test the target is T4, control peptide A2E-11/HLA-A*02:01 complex on T2 cells (member of the P19 mixture) (human).
T4 construct: Loaded on T2 cells as part of the mixture of 19 control peptides
Put plainly: flow cytometry, phage on T2 cells.
Text: as §1, §2
Consider B1, for which the binding result is recorded as “no binding”.

On to B2, for which the binding result was “no binding”.

Regarding B3, the binding result was “no binding”.

As to B4, the binding result is “no binding”.

For another test, the target named is T5, control peptide A2E-6/HLA-A*02:01 complex on T2 cells (member of the P19 mixture) (human).
T5 construct: Loaded on T2 cells as part of the mixture of 19 control peptides
The test is described as follows: flow cytometry, phage on T2 cells.
Text: as §1, §2
As for B1, the binding result is listed as “no binding”.

Regarding B2, the binding result is “no binding”.

Regarding B3, the binding result is “no binding”.

Consider B4, for which the binding result is “no binding”.

A further test addresses T6, control peptide A2E-13/HLA-A*02:01 complex on T2 cells (member of the P19 mixture) (human).
T6 construct: Loaded on T2 cells as part of the mixture of 19 control peptides
Put plainly: flow cytometry, phage on T2 cells.
Text: as §1, §2
Take B1: the binding result is “no binding”.

As to B2, the binding result is “no binding”.

Consider B3, for which the binding result is recorded as “no binding”.

On to B4, for which the binding result is given as “no binding”.

The next test concerns the target T7, control peptide A2E-7/HLA-A*02:01 complex on T2 cells (member of the P19 mixture) (human).
T7 construct: Loaded on T2 cells as part of the mixture of 19 control peptides
The test is described as follows: flow cytometry, phage on T2 cells.
Text: as §1, §2
Take B1: the binding result is recorded as “no binding”.

On to B2, for which the binding result is “no binding”.

For the molecule B3, the binding result is “no binding”.

B4: the binding result is on record as “no binding”.

The next test has as its target T8, control peptide A2E-8/HLA-A*02:01 complex on T2 cells (member of the P19 mixture) (human).
T8 construct: Loaded on T2 cells as part of the mixture of 19 control peptides
The test is described as follows: flow cytometry, phage on T2 cells.
Text: as §1, §2
In the case of B1, the binding result was “no binding”.

In the case of B2, the binding result is given as “no binding”.

For B3, the binding result is listed as “no binding”.

In the case of B4, the binding result is given as “no binding”.

A further test concerns the target T9, control peptide A2E-10/HLA-A*02:01 complex on T2 cells (member of the P19 mixture) (human).
T9 construct: Loaded on T2 cells as part of the mixture of 19 control peptides
The test is described as follows: flow cytometry, phage on T2 cells.
Text: as §1, §2
Turning to B1, the binding result was “no binding”.

For B2, the binding result was “no binding”.

For B3, the binding result is “no binding”.

In the case of B4, the binding result is reported as “no binding”.

The target of another test is T10, control peptide A2E-17/HLA-A*02:01 complex on T2 cells (member of the P19 mixture) (human).
T10 construct: Loaded on T2 cells as part of the mixture of 19 control peptides
Put plainly: flow cytometry, phage on T2 cells.
Text: as §1, §2
Take B1: the binding result was “no binding”.

B2: the binding result was “no binding”.

In the case of B3, the binding result is reported as “no binding”.

Consider B4, for which the binding result was “no binding”.

Another test deals with T11, control peptide A2E-19/HLA-A*02:01 complex on T2 cells (member of the P19 mixture) (human).
T11 construct: Loaded on T2 cells as part of the mixture of 19 control peptides
Put plainly: flow cytometry, phage on T2 cells.
Text: as §1, §2
On to B1, for which the binding result is “no binding”.

Turning to B2, the binding result is recorded as “no binding”.

Regarding B3, the binding result is “no binding”.

B4: the binding result is “no binding”.

The target in a further test is T12, control peptide A2E-16/HLA-A*02:01 complex on T2 cells (member of the P19 mixture) (human).
T12 construct: Loaded on T2 cells as part of the mixture of 19 control peptides
Put plainly: flow cytometry, phage on T2 cells.
Text: as §1, §2
Turning to B1, the binding result is on record as “no binding”.

As for B2, the binding result is “no binding”.

As to B3, the binding result is “no binding”.

As to B4, the binding result is listed as “no binding”.

In a further test the target is T13, control peptide A2E-21/HLA-A*02:01 complex on T2 cells (member of the P19 mixture) (human).
T13 construct: Loaded on T2 cells as part of the mixture of 19 control peptides
The test is described as follows: flow cytometry, phage on T2 cells.
Text: as §1, §2
Regarding B1, the binding result is “no binding”.

Regarding B2, the binding result is listed as “no binding”.

As to B3, the binding result is “no binding”.

In the case of B4, the binding result was “no binding”.

The next test deals with T14, control peptide A2E-2/HLA-A*02:01 complex on T2 cells (member of the P19 mixture) (human).
T14 construct: Loaded on T2 cells as part of the mixture of 19 control peptides
Put plainly: flow cytometry, phage on T2 cells.
Text: as §1, §2
Turning to B1, the binding result was “no binding”.

For the molecule B2, the binding result is “no binding”.

As to B3, the binding result is “no binding”.

As for B4, the binding result is “no binding”.

Another test concerns the target T15, control peptide A2E-14/HLA-A*02:01 complex on T2 cells (member of the P19 mixture) (human).
T15 construct: Loaded on T2 cells as part of the mixture of 19 control peptides
The test is described as follows: flow cytometry, phage on T2 cells.
Text: as §1, §2
In the case of B1, the binding result is “no binding”.

On to B2, for which the binding result is recorded as “no binding”.

As for B3, the binding result is “no binding”.

On to B4, for which the binding result was “no binding”.

The next test deals with T16, control peptide A2E-23/HLA-A*02:01 complex on T2 cells (member of the P19 mixture) (human).
T16 construct: Loaded on T2 cells as part of the mixture of 19 control peptides
Put plainly: flow cytometry, phage on T2 cells.
Text: as §1, §2
On to B1, for which the binding result is reported as “no binding”.

B2: the binding result is on record as “no binding”.

As for B3, the binding result is given as “no binding”.

In the case of B4, the binding result is on record as “no binding”.

The target of a further test is T17, control peptide A2E-9/HLA-A*02:01 complex on T2 cells (member of the P19 mixture) (human).
T17 construct: Loaded on T2 cells as part of the mixture of 19 control peptides
The test is described as follows: flow cytometry, phage on T2 cells.
Text: as §1, §2
For B1, the binding result is recorded as “no binding”.

Consider B2, for which the binding result was “no binding”.

For the molecule B3, the binding result is listed as “no binding”.

In the case of B4, the binding result is “no binding”.

The target in the next test is T18, control peptide A2E-3/HLA-A*02:01 complex on T2 cells (member of the P19 mixture) (human).
T18 construct: Loaded on T2 cells as part of the mixture of 19 control peptides
The test is described as follows: flow cytometry, phage on T2 cells.
Text: as §1, §2
Turning to B1, the binding result is listed as “no binding”.

Turning to B2, the binding result was “no binding”.

B3: the binding result is recorded as “no binding”.

B4: the binding result is “no binding”.

A further test concerns the target T19, control peptide A2E-15/HLA-A*02:01 complex on T2 cells (member of the P19 mixture) (human).
T19 construct: Loaded on T2 cells as part of the mixture of 19 control peptides
Put plainly: flow cytometry, phage on T2 cells.
Text: as §1, §2
Regarding B1, the binding result is recorded as “no binding”.

In the case of B2, the binding result is given as “no binding”.

For B3, the binding result was “no binding”.

As to B4, the binding result is “no binding”.

A further test addresses T20, PSA 146-154 peptide/HLA-A*02:01 complex on the cell surface (human).
T20 construct: also called PSA146/HLA-A*02:01; PSA146-loaded T2 cells
Put plainly: flow cytometry, phage on T2 cells, anti-M13 + R-PE anti-mouse IgG.
Text: as §1, §2
Turning to B1, the binding result is given as “binds”.

Take B2: the binding result is “binds”.

With B5, the binding result is given as “binds”.

As to B3, the binding result is “binds”.

With B4, the binding result is reported as “binds”.
